Measured values: patent US8796201B2 (The Board of Trustees of the Leland Stanford Junior …, priority 2002, dated 2014)

How the values were obtained:
[1] = test system: PQPQLPYPQPQLP and LQLQPFPQPQLPYPQPQLPYPQPQLPYPQPQPF; assay: Competitive proteolysis of 13-mer and 33-mer by each PEP; format: biochemical, wheat; details: 50 μM PQPQLPYPQPQLP, 10 μM 33-mer, 0.1 μM PEP
Method: FIGS. 12A-12C. […] 10 μM of the longer peptide and 50 μM of the shorter peptide were co-incubated with 0.1 μM of (A) FM PEP; (B) MX PEP; (C) SC PEP.
To examine the chain length specificity of individual PEPs, we performed competitive reactions containing both gluten-derived peptides, subjected the reaction mixture to RP-HPLC, and monitored the disappearance of each substrate was monitored as a function of time.

PQPQLPYPQPQLP = assay: Competitive assay of PEP specificity for gliadin peptide versus Suc-Ala-Pro-pNA; format: biochemical, wheat; details: PQPQLPYPQPQLP vs Suc-Ala-Pro-pNA
Method: Substrate Specificity. In addition to the reference substrates above, enzyme specificity was also evaluated using two immunogenic peptides derived from the sequence of γ-gliadin proteins in gluten. Both peptides were synthesized using solid-phase peptide synthesis. The peptide (SEQ ID NO:4) […] contains the immunodominant γII-epitope, and is resistant to proteolysis by pepsin or any pancreatic enzyme. PEP specificity toward this substrate was assessed in a competitive assay in which 100 μM (SEQ ID NO:4) […] and 100 μM Suc-Ala-Pro-pNA were mixed and reacted with 0.02 μM PEP at 25° C. The initial velocity of Suc-Ala-Pro-pNA cleavage was measured spectrophotometrically, whereas the initial velocity of (SEQ ID NO:4) […] hydrolysis was determined via HPLC. The apparent specificity, kcat/KM, for the hydrolysis of (SEQ ID NO:4) […] could be determined based on the known kcat/KM of the enzyme for Suc-Ala-Pro-pNA and the observed reaction rates of the two substrates. […]
The kcat/KM values of each PEP were determined in an assay mixture containing (SEQ ID NO:4) […] as well as Suc-Ala-Pro-pNA as a competing substrate. The rates of disappearance of both substrates were determined by independent detection methods. The initial rate of disappearance of (SEQ ID NO:4) […] was measured by HPLC, whereas the rate of consumption of Suc-Ala-Pro-pNA was measured spectrophotometrically. […]

33-mer gliadin peptide = assay: In vivo endopeptidase activity: co-perfusion of 33-mer and PEP in rat jejunum
Method: FIG. 7. Breakdown and detoxification of 33-mer gliadin peptide with PEP.
FIG. 14. (SEQ ID NO:12) Proteolysis of […] (5 μM) co-perfused with individual PEP's (0.1 μM) in the small intestinal lumen of an anesthetized rat. Each enzyme-substrate mixture was introduced via a catheter into a 15-20 cm segment of the upper jejunum. Samples were collected at the other end of the segment, and analyzed by UV-HPLC (215 nm). The control without any PEP is shown in the top trace.
In accordance with the methods of the invention, a prolyl endopeptidase can catalyze breakdown of this peptide, thereby diminishing its toxic effects. […] The ability of this PEP to clear the 33-mer gliadin peptide was evaluated via in vitro and in vivo experiments.
In Vivo Endopeptidase Activity. An adult (female or male) rat was anesthetized and maintained at 36-37° C. during the entire surgical procedure. The peritoneal cavity was opened, and a small incision was made at the beginning and the end of a 15-20 cm jejunum segment. Polyethylene catheters were inserted and secured into the two ends. The input catheter was connected with a pump-driven syringe filled with a solution. […] The collected digestive products were analyzed by HPLC on a C18 column.
In Vivo Hydrolysis. […] In this live animal model, the impact of concerted action of the perfused (luminal) PEP and the brush border (surface) peptidases is assessed.

[2] = Allergenicity of the denatured protein; set-up: species or system rodents, rabbits and humans; details: in vivo

Row | Molecule | chain length selectivity, 13-mer vs 33-mer [1] | higher specificity for the gluten peptide as compared to the chromogenic substrate (PQPQLPYPQPQLP) [fold] | detoxification (clearance) of the 33-mer gliadin peptide (33-mer gliadin peptide; rat BBM and co-perfusion in intact rat intestines) | breakdown of the 33-mer co-perfused in rat jejunum (33-mer gliadin peptide; 5 μM 33-mer, 0.1 μM PEP, 15-20 cm segment) | allergenicity of the denatured protein [2]
1 | MX PEP: novel recombinant prolyl endopeptidase from Myxococcus xanthus (Genbank AF127082, SEQ ID NO:47) (protein, listed as Myxococcus xanthus) MSYPATRAEQVVDTLHGVQVADPYRWLEDEKAPEVQTWMTAQNAHAREALAKFPGREALAARFKELFYTDSVSTPSRRNGRFFYVRTHKDKEKAILYWRQGESGQEKVLLDPNGWSKDGTVSLGTWAVSWDGKKVAFAQKPNAADEAVLHVIDVDSGEWSKVDVIEGGKYATPKWTPDSKGFYYEWLPTDPSIKVDERPGYTTIRYHTLGTEPSKDTVVHERTGDPTTFLQSDLSRDGKYLFVYILRGWSENDVYWKRPGEKDFRLLVKGVGAKYEVHAWKDRFYVLTDEGAPRQRVFEVDPAKPARASWKEIVPEDSSASLLSVSIVGGHLSLEYLKDATSEVRVATLKGKPVRTVQLPGVGAASNLMGLEDLDDAYYVFTSFTTPRQIYKTSVSTGKSELWAKVDVPMNPEQYQVEQVFYASKDGTKVPMFVVHRKDLKRDGNAPTLLYGYGGFNVNMEANFRSSILPWLDAGGVYAVANLRGGGEYGKAWHDAGRLDKKQNVFDDFHAAAEYLVQQKYTQPKRLAIYGGSNGGLLVGAAMTQRPELYGAVVCAVPLLDMVRYHLFGSGRTWIPEYGTAEKPEDFKTLHAYSPYHHVRPDVRYPALLMMAADHDDRVDPMHARKFVAAVQNSPGNPATALLRIEANAGHGGADQVAKAIESSVDLYSFLFQVLDVQGAQGGVAAQGR | clear preference for the 13-mer peptide | 5 |  |  | 
2 | PEP: prolyl endopeptidase; Examples 1-2: from Flavobacterium meningosepticum (US Biological); Example 11: source not stated (protein, UniProt P27028 21-705, looked up) Prolyl endopeptidase: QNSNVLKYPETKKVSHTDTYFGTQVSDPYRWLEDDRAEDTKAWVQQEVKFTQDYLAQIPFRDQLKKQLMDIWNYEKISAPFKKGKYTYFSKNDGLQAQSVLYRKDAAGKTEVFLDPNKFSEKGTTSLASVSFNKKGTLVAYSISEGGSDWNKIIILDAETKKQLDETLLDVKFSGISWLGDEGFFYSSYDKPKEGSVLSGMTDKHKVYFHKLGTKQSQDELIIGGDKFPRRYIGAYVTDDQRYLVVSAANATNGNELYIKDLKNKTDFIPIITGFDSNVNVADTDGDTLYLFTDKDAPNKRLVKTTIQNPKAETWKDVIAETSEPLEINTGGGYFFATYMKDAIDQVKQYDKNGKLVRAIKLPGSGNASGFGGEKTEKDLYYSFTNYITPPTIFKYNVTTGNSEVYQKPKVKFNPENYVSEQVFYTSSDGTKIPMMISYKKGLKKDGKNPTILYSYGGFNISLQPAFSVVNAIWMENGGIYAVPNIRGGGEYGKKWHDAGTKMQKKNVFNDFIAAGEYLQKNGYTSKEYMALSGRSNGGLLVGATMTMRPDLAKVAFPGVGVLDMLRYNKFTAGAGWAYDYGTAEDSKEMFEYLKSYSPVHNVKAGTCYPSTMVITSDHDDRVVPAHSFKFGSELQAKQSCKNPILIRIETNAGHGAGRSTEQVVAENADLLSFALYEMGIKSLK |  |  | this detoxification was demonstrated |  | 
3 | FM PEP: recombinant prolyl endopeptidase from Flavobacterium meningosepticum (Genbank D10980) (protein) QNSNVLKYPETKKVSHTDTYFGTQVSDPYRWLEDDRAEDTKAWVQQEVKFTQDYLAQIPFRDQLKKQLMDIWNYEKISAPFKKGKYTYFSKNDGLQAQSVLYRKDAAGKTEVFLDPNKFSEKGTTSLASVSFNKKGTLVAYSISEGGSDWNKIIILDAETKKQLDETLLDVKFSGISWLGDEGFFYSSYDKPKEGSVLSGMTDKHKVYFHKLGTKQSQDELIIGGDKFPRRYIGAYVTDDQRYLVVSAANATNGNELYIKDLKNKTDFIPIITGFDSNVNVADTDGDTLYLFTDKDAPNKRLVKTTIQNPKAETWKDVIAETSEPLEINTGGGYFFATYMKDAIDQVKQYDKNGKLVRAIKLPGSGNASGFGGEKTEKDLYYSFTNYITPPTIFKYNVTTGNSEVYQKPKVKFNPENYVSEQVFYTSSDGTKIPMMISYKKGLKKDGKNPTILYSYGGFNISLQPAFSVVNAIWMENGGIYAVPNIRGGGEYGKKWHDAGTKMQKKNVFNDFIAAGEYLQKNGYTSKEYMALSGRSNGGLLVGATMTMRPDLAKVAFPGVGVLDMLRYNKFTAGAGWAYDYGTAEDSKEMFEYLKSYSPVHNVKAGTCYPSTMVITSDHDDRVVPAHSFKFGSELQAKQSCKNPILIRIETNAGHGAGRSTEQVVAENADLLSFALYEMGIKSLK | comparable selectivity for both peptides | 5 |  | promoted more complete breakdown of the 33-mer than both the MX and the SC PEP | non-allergenic in rodents, rabbits and humans
